In the assay the target is LysdesArg9BK (Homo sapiens, 3H label on peptide). The assay is described as follows: radioligand binding on HEK293 cells.

B1: B1R (protein)
chain: MASSWPPLELQSSNQSQLFPQNATACDNAPEAWDLLHRVLPTFIISICFFGLLGNLFVLLVFLLPRRQLNVAEIYLANLAASDLVFVLGLPFWAENIWNQFNWPFGALLCRVINGVIKANLFISIFLVVAISQDRYRVLVHPMASRRQQRRRQARVTCVLIWVVGGLLSIPTFLLRSIQAVPDLNITACILLLPHEAWHFARIVELNILGFLLPLAAIVFFNYHILASLRTREEVSRTRCGGRKDSKTTALILTLVVAFLVCWAPYHFFAFLEFLFQVQAVRGCFWEDFIDLGLQLANFFAFTNSSLNPVIYVFVGRLFRTKVWELYKQCTPKSLAPISSSHRKEIFQLFWRN
In turn, B1 registered a Kd of 1.3 nM.

The values are drawn from PMC12473165 (2025).
